Results reported in paper PMC6201868, “Significance of a histone-like protein with its native structure for the diagnosis of asymptomatic tuberculosis” (PLoS ONE, 2018).

B1: rN-MDP1 (amino acids 1-100 of mycobacterial DNA-binding protein 1, histidine-tagged) (domain or fragment)
chain: MGMNKAELIDVLTQKLGSDRRQATAAVENVVDTIVRAVHKGDSVTITGFGVFEQRRRAARVARNPRTGETVKVKPTSVPAFRPGAQFKAVVSGAQRLPAE
notes: also called N-terminal half of MDP1

Legend:
[1] = target: rFull-MDP1 (full-length HIS-tagged recombinant mycobacterial DNA-binding protein 1) (M. tuberculosis) (UniProt P9WMK7); test: cross-linking
[2] = target: the molecule itself; test: […], buffer pH 7.0 with 300 mM NaCl, […]

Row | Molecule | stoichiometry N [1] | stoichiometry N [2]
1 | rFull-MDP1 (full-length HIS-tagged recombinant mycobacterial DNA-binding protein 1) (from UniProt P9WMK7 1-216) (natural protein) | 2 | –
2 | B1 | – | 2
